The record followed here is article PMC12795676, “Integrin α5β1 mediates the inhibitory effects of vasoinhibin on angiogenesis and vascular permeability [image fx1.gif]” (The Journal of Biological Chemistry, 2025).

Settings in all cases: both partners purified
Assay [1] deals with plasminogen activator inhibitor-1 (PAI-1), immobilised on ELISA plates (UniProt P05121 24-402). Nature of the assay: ELISA; plates coated with 2 μg/mL integrin α5β1, PAI-1 or PAI-1-uPA complex; incubated with B-Vi45-51 or Vi (dose-dependent) or 100 nM Vi mutants; horseradish peroxidase antibodies and TMB. A general note: In an ELISA, binding on a coated surface is turned into a signal by an enzyme label.
Chain of plasminogen activator inhibitor-1 (PAI-1), immobilised on ELISA plates (P05121 24-402): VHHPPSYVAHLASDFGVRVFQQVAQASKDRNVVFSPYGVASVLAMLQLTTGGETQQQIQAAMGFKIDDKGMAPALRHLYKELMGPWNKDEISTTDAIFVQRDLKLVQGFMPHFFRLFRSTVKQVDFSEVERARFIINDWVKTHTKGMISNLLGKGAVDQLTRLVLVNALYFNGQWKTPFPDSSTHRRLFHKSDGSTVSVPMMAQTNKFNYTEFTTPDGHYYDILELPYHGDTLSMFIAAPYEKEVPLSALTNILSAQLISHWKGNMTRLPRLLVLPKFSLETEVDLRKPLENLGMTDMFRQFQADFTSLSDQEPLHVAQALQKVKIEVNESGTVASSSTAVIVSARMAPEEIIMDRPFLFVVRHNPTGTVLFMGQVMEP

The target of assay [2] is T1, recombinant human integrin α5β1 (human, UniProt P08648 42-995; P05556 21-728).
T1 construct: integrin α5 subunit, human, recombinant; integrin β1 subunit, human, recombinant; No catalogue number is printed; also called α5β1 integrin; source: bought: Bio-Techne
T1 sequence (P08648 42-995, chain 1 of 2): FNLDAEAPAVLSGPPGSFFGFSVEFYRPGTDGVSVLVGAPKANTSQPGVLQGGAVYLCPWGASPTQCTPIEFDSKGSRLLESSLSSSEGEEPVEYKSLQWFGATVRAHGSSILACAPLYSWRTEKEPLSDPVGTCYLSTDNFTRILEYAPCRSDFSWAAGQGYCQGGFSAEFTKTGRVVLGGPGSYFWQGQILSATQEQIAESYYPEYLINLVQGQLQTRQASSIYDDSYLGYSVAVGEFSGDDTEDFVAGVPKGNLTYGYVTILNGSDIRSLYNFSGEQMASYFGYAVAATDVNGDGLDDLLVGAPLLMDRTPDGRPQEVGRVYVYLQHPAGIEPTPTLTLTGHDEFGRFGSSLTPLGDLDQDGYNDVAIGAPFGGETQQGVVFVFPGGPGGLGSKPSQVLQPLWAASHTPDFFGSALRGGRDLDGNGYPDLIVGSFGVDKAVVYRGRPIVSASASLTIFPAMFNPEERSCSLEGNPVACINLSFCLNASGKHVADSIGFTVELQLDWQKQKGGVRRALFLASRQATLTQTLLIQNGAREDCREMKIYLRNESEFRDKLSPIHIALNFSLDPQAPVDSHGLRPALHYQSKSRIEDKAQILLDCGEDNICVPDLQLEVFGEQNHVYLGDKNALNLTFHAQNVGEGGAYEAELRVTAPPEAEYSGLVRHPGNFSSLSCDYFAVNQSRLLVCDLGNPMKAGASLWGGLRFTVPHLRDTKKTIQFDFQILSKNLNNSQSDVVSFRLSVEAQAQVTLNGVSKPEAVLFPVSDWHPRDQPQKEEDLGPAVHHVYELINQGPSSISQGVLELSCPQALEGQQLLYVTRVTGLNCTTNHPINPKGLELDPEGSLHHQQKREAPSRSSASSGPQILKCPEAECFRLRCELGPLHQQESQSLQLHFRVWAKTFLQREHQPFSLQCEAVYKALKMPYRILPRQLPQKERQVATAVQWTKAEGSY
T1 sequence (P05556 21-728, chain 2 of 2): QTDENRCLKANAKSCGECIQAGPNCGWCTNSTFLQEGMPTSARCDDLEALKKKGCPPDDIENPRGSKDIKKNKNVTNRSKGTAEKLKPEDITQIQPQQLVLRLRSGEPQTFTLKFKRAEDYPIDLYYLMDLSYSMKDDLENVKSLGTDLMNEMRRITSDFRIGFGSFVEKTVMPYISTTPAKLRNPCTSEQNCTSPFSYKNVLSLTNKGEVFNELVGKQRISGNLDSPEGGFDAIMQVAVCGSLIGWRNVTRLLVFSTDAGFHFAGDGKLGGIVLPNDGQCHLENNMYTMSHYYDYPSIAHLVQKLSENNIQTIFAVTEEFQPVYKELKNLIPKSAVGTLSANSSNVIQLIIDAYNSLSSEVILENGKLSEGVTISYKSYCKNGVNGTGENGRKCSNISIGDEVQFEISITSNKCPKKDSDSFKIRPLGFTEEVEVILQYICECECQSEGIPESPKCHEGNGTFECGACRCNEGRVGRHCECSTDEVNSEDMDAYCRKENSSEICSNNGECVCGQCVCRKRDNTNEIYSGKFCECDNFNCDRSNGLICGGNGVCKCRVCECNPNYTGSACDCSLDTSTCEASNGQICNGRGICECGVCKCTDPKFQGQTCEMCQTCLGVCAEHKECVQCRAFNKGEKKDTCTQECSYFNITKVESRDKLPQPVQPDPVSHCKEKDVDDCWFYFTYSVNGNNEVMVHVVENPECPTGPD
The description is as above.

In assay [3] the target is T2, PAI-1-uPA complex, immobilised on ELISA plates (UniProt P05121 24-402; P00749 21-431).
T2 construct: the methods print '(37 °C, 10 min)' after the complex
T2 sequence (P05121 24-402, chain 1 of 2, other chains not shown): as the sequence (P05121 24-402) above
Described as above.

The target of assay [4] is T1, recombinant human integrin α5β1. Nature of the assay: SPR; B-Vi45-51 (100 nM) immobilised on a streptavidin SA chip (Biacore 1K); integrin α5β1 injected at 30 μl/min, 60 s association/dissociation; HBS-P, 150 mM NaCl, 1 mM MnCl2, pH 7.4; 1:1 model (legend: steady-state).

No end group written: not given here.

B1: vasoinhibin (Vi) (domain or fragment, UniProt P01236 29-151, looked up)
chain: LPICPGGAARCQVTLRDLFDRAVVLSHYIHNLSSEMFSEFDKRYTHGRGFITKAINSCHTSSLATPEDKEQAQQMNQKDFLSLIVSILRSWNEPLYHLVTEVRGMQEAPEAILSKAVEIEEQT
notes: vasoinhibin, a fragment of the hormone prolactin; also called 16K prolactin
Take B1: the dissociation constant (Kd) in assay [1] was 0.528 µM; in assay [2], 0.383 µM; in assay [3], 0.406 µM.

B2: biotinylated peptide comprising residues 45 to 51 of vasoinhibin (B-Vi45-51) (peptide, UniProt P01236 73-79, looked up)
peptide: THGRGFI
modifications: also: biotin, position not given here
notes: vasoinhibin (fragment of prolactin), residues 45 to 51, holds the HGR motif (H46, R48 printed); also called biotinylated Vi45-51; source: synthetic peptide, bought: GenScript
On to B2, for which the Kd in assay [4] came out at 2.74 µM.

By Kd is commonly meant the concentration at which binding is half-saturated.
